Laboratory results: patent US20260250410A1 (SICHUAN HUIYU PHARMACEUTICAL, published 2026)
Where a chain is given by its changes, count along the chain named.

T1: human CDCP1 on tumor cells (human, UniProt Q9H5V8 30-836)
T1 sequence (looked up): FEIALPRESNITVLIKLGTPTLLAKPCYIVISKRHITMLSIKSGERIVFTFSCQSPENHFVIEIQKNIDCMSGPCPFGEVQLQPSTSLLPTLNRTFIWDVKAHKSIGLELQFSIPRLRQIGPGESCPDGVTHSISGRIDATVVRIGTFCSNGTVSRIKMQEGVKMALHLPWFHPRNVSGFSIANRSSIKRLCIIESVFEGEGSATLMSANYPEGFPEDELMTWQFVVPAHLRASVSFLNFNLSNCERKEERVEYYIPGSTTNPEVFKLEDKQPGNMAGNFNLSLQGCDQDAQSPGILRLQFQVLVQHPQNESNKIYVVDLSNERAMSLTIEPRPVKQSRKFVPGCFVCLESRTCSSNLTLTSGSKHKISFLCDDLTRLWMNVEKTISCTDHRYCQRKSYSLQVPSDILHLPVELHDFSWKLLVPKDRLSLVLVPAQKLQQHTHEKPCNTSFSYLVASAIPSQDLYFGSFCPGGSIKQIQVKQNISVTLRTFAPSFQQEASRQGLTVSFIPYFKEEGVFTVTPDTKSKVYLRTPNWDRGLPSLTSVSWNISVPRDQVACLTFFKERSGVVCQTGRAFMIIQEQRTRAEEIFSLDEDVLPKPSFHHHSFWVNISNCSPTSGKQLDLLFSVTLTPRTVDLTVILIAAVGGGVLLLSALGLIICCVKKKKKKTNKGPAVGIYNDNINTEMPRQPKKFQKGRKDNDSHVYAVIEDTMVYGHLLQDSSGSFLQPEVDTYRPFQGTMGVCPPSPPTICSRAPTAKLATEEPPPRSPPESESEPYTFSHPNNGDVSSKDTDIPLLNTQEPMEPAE

T2: HuCDCP1-C (human, UniProt Q9H5V8 30-667)
T2 construct: range 30-667; expressed in HEK-293T, purified by Fc/his tag; also called human CDCP1-C; full-length extracellular domain of human CDCP1; not shown: Fc or his tag
T2 sequence (looked up): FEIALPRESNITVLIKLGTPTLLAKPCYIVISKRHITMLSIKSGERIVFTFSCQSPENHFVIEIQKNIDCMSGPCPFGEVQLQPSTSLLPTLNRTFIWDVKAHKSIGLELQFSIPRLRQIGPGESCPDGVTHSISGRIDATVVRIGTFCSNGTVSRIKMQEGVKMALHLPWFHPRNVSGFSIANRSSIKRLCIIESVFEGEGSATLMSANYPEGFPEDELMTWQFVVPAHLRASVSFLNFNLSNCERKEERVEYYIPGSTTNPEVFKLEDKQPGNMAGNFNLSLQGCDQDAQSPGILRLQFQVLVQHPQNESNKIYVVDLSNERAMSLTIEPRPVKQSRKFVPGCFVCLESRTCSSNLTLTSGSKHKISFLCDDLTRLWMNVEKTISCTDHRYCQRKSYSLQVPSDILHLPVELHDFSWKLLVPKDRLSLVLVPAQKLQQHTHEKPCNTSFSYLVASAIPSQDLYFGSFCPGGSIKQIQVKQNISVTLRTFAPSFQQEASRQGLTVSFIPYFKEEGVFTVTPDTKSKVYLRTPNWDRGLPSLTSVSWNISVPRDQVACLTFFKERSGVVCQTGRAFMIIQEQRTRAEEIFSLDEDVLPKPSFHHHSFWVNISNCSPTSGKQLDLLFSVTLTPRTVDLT

B1: 8E5-MMAE (antibody, V domains shown)
VH: EVQLKESGPELKKPGETVKISCKASGYTLTDFSMHWLKQAPGKGLKWMGWINTETGAPTYADDFKGRFALSLDTSANTAYLQINNLKNEDTATYFCSRGRDYDPHFDYWGQGTTVTVSS
VL: EIVLTQSPATLSVTPGDRVSLSCRASQSISDFLHWYQQRSHESPRLLIKYASQSISGIPSRFGGSGSGSDFTLNINTVEPEDVGMYYCQSAHSFPYTFGGGTKLEIK
modifications: vc-MMAE coupled after reduction, sites not stated; DAR 3.65
B2: 3C11-MMAE (antibody, V domains shown)
VH: EVQLQQSGTVLARPGASVKMSCKASGYNFISYWLHWIKQRPGQGLEWIGGIYPGNTDTTYNQKFKGKAKVTAVTSATTAYMELSSLTNEDSAVYYCIRYDYDRGMDYWGQGTTVTVSS
VL: DIQMTQSPSSFSVSLGDRVTITCRASEDIYYRLAWYQQKPGNAPRLLISGATALETGVPSRFSGSGSGKDYTLSITSLQTEDVATYYCQHYWNIPWTFGGGTKLEIK
modifications: vc-MMAE coupled after reduction, sites not stated; DAR 3.48
B3: 3B12H5-MMAE (antibody, V domains shown)
VH: EVQLQQSGTVLARPGASVKMSCKASGYSFTIYWVHWVKQRPGQGLEWIGAVYPGNDDTSYNQNFKGKAKLTAVTSATTAYMELSSLTIDDSAVYYCTRHTYDEVFDYWGQGTTVTVSS
VL: B2 VL with Q3V, F11L, R24K, A51G, A53N, T56A, V58I, T85I, I94T
modifications: vc-MMAE coupled after reduction, sites not stated; DAR 3.2
B4: 6A7-MMAE (antibody, V domains shown)
VH: EVQLKESGAELVRPGASVKVSCKASGYSFTSYWMNWVKQRPGQGLEWIGMIHPSDSETKLNQKFRDRASLTVDKSSSTAYMQLSSPTSEDSAVYYCTINYESFYYAMDYWGQGTTVTVSS
VL: DIVMTQSPASLAVSLGQRATISCRASKSVSTSGYSYMHWYQQKPGQPPKLLLYLASNLESGVPARFSGSGSGADFTLNIHPVEEEDAATYYCLHSRELPYTFGGGTKLEIK
modifications: vc-MMAE coupled after reduction, sites not stated; DAR 3.6
B5: 10D2-MMAE (antibody, V domains shown)
VH: EVQLQQSGPELKKPGETVKISCKASGYTFTDYSMHWVKQAPGKGLKWMGWINTETGQPTYADDFKGRFAFSLETSASSAYLQINNLKNEDTATYFCTRTFYYDYVGDYWGQGTTVTVSS
VL: DIVMTQSHKFMSTSVGDRVSITCKASQDVSTAVAWYRQKPGQSPKLLIYWASTRHTGVPDRLTGSGSGTDFALTINSVQAEDLALYYCQQHSSTPYTFGGGTKLEIK
modifications: vc-MMAE coupled after reduction, sites not stated; DAR 3.5
B6: 5B8-MMAE (antibody, V domains shown)
VH: EVQLKESGGGLVQPGGSLRISCATSGLTFTHYHMSWVRQPPGKAPEWLAIIRNKAYGYTTDYSASVRGRFTISRDDSQSILYLQMNTLRAEDSATYYCVREGGYGYDGTFAYWGQGTTVTVSS
VL: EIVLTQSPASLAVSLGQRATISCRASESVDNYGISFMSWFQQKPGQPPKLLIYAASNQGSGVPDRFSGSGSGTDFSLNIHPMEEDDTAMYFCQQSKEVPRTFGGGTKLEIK
modifications: vc-MMAE coupled after reduction, sites not stated; DAR 3.85
B7: 8C9-MMAE (antibody, V domains shown)
VH: B6 VH with A90P
VL: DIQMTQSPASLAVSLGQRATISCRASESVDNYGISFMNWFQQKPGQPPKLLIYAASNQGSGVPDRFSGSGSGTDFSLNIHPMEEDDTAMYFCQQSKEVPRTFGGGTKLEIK
modifications: vc-MMAE coupled after reduction, sites not stated; DAR 3.44
B8: G10F6-MMAE (antibody, V domains shown)
VH: EVKLVESGPGILQPSQTLSLTCSFSGFSLSTSGMGVSWVRQPSGKGLEWLAHIYWDDDKRYNPSLKGRLTISKDTPRNQVFLEITSVDTTDTATYYCARVPGNWDEDAMDYWGQGTTVTVSS
VL: DIQMTQSPLSLPVSLGDQASISCRSSQNIVHTNGNTYLEWYLQKVGQSPKLLIYKVSNRFSGVPDRFSGSGSGTDFTLKISRVEAEDLGVYYCFQGSHVPYTFGGGTKLEIK
modifications: vc-MMAE coupled after reduction, sites not stated; DAR 3.6
B9: 1CP-151 (antibody, human IgG1, kappa, V domains shown)
VH: EVQLVESGGGLVQPGRSLRLSCTASGLTFTHYHMSWFRQAPGKGLEWVAIIRNKAYGYTTDYSASVRGRFTISRDDSKSILYLQMNSLKTEDTAVYYCVREGGYGYDGTFAYWGQGTLVTVSS
VL: DIQMTQSPSSLSASVGDRVTITCRASESVDNYGISFMNWFQQKPGQAPKLLIYAASNQGSGVPSRFSGSGSGTDFTLTISSMQPEDFATYYCQQSKEVPRTFGGGTKVEIKR
notes: humanized 8C9, human IgG1 kappa
B10: 1CP-160 (antibody, human IgG1, kappa, V domains shown)
VH: B9 VH with A24T, F37V
VL: B9 VL with A47P, Y91F
notes: as for B9
B11: 1CP-155 (antibody, human IgG1, kappa, V domains shown)
VH: B9 VH
VL: B9 VL with A47P
notes: as for B9
B12: 1CP-162 (antibody, human IgG1, kappa, V domains shown)
VH: B9 VH with A24T, F37V, A40P, G44A, L45P
VL: B9 VL with A47P, Y91F
notes: as for B9
B13: 1CP-153 (antibody, human IgG1, kappa, V domains shown)
VH: B9 VH with A24T, F37V, L45P
VL: B9 VL
notes: as for B9
B14: 1CP-154 (antibody, human IgG1, kappa, V domains shown)
VH: B9 VH with A24T, F37V, A40P, G44A, L45P
VL: B9 VL
notes: as for B9
B15: 1CP-159 (antibody, human IgG1, kappa, V domains shown)
VH: B9 VH
VL: B9 VL with A47P, Y91F
notes: as for B9
B16: 1CP-158 (antibody, human IgG1, kappa, V domains shown)
VH: B9 VH with A24T, F37V, A40P, G44A, L45P
VL: B9 VL with A47P
notes: as for B9
B17: 1CP-161 (antibody, human IgG1, kappa, V domains shown)
VH: B9 VH with A24T, F37V, L45P
VL: B9 VL with A47P, Y91F
notes: as for B9

What follows are binders tested against T1, human CDCP1 on tumor cells (assay: cell-based or functional assay).

Going from B1 to B2, the “IC50 (nM), killing of HCT116 cells (120 h), CellTiter-Glo” value (from here on “IC50 (nM), killing of HCT116 cells”) falls from 10.6 nM to 2.33 nM (4.5-fold).

B3 and B4 are within 1.5-fold of each other in “IC50 (nM), killing of HCT116 cells” value: 6.87 nM for the first, 5.84 nM for the second.

B5 and B6 are within 1.5-fold of each other in “IC50 (nM), killing of HCT116 cells” value: 11.4 nM for the first, 11.7 nM for the second.

First: B7
Second: B8
The “IC50 (nM), killing of HCT116 cells” value of the first is 10-fold higher: 13 nM for the first, 1.29 nM for the second.

B1 and B2 cannot be ordered by “IC50 (nM), killing of MDA-MB-231 cells (120 h), CellTiter-Glo” value (“IC50 (nM), killing of MDA-MB-231 cells” for short): > 40 nM for the first, > 40 nM for the second.

B3 and B4 cannot be ordered by “IC50 (nM), killing of MDA-MB-231 cells” value: > 40 nM for the first, > 40 nM for the second.

B5 and B6 cannot be ordered by “IC50 (nM), killing of MDA-MB-231 cells” value: > 200 nM for the first, > 200 nM for the second.

B7 and B8 cannot be ordered by “IC50 (nM), killing of MDA-MB-231 cells” value: > 40 nM for the first, > 40 nM for the second.

Compared with B1, B2 is 1.7-fold lower in “IC50 (nM), killing of PC3 cells (96 h), CellTiter-Glo” value (“IC50 (nM), killing of PC3 cells” for short): 0.0205 nM for the first, 0.0119 nM for the second.

Compared with B3, B4 is 2.3-fold higher in “IC50 (nM), killing of PC3 cells” value: 0.0225 nM for the first, 0.0527 nM for the second.

B5 and B6 are within 1.5-fold of each other in “IC50 (nM), killing of PC3 cells” value: 0.0164 nM for the first, 0.014 nM for the second.

First: B7
Second: B8
The “IC50 (nM), killing of PC3 cells” value of the first is 1.7-fold higher: 0.0184 nM for the first, 0.0106 nM for the second.

Each binder was assayed against T2, HuCDCP1-C (assay: SPR (Caterra), antigen immobilized).
Experimental: The humanized anti-CDCP1 antibodies obtained from Example 11 were subjected to gene cloning, constructed into pTT5 expression vector for a small amount of expression in CHO cells (Expi-CHOS: Gibco A29127), and purified with an Fc affinity column (AT Protein A Diamond Plus. No. AA402312). Antibody purity was analyzed by HPLC and determined by Nanodrop. High-throughput affinity assay was carried out for a small amount of antibodies by Caterra.

Going from B9 to B10, the Kd falls from 19.1 nM to 3.8 nM (5-fold). The second binds more tightly here.

First: B11
Second: B12
The Kd of the first is 14-fold higher: 36.6 nM for the first, 2.7 nM for the second.

B13 and B14 are within 1.5-fold of each other in Kd: 3.58 nM for the first, 2.92 nM for the second.

Going from B15 to B16, the Kd falls from 42.5 nM to 2.96 nM (14-fold). The second binds more tightly here.

Binder B17 has a Kd of 3.21 nM.

Compared with B9, B10 is 7.2-fold lower in koff: 0.00302 s⁻¹ for the first, 0.00042 s⁻¹ for the second.

Going from B11 to B12, the koff falls from 0.000579 s⁻¹ to 0.000305 s⁻¹ (1.9-fold).

B13 and B14 are within 1.5-fold of each other in koff: 0.000388 s⁻¹ for the first, 0.000346 s⁻¹ for the second.

First: B15
Second: B16
The koff of the first is 2.4-fold higher: 0.000767 s⁻¹ for the first, 0.000321 s⁻¹ for the second.

B17 showed a koff of 0.000365 s⁻¹.

B9 and B10 are within 1.5-fold of each other in kon: 158000 M⁻¹ s⁻¹ for the first, 110000 M⁻¹ s⁻¹ for the second.

Going from B11 to B12, the kon rises from 15800 M⁻¹ s⁻¹ to 113000 M⁻¹ s⁻¹ (7.2-fold).

B13 and B14 are within 1.5-fold of each other in kon: 108000 M⁻¹ s⁻¹ for the first, 118000 M⁻¹ s⁻¹ for the second.

First: B15
Second: B16
The kon of the first is 6.1-fold lower: 18000 M⁻¹ s⁻¹ for the first, 109000 M⁻¹ s⁻¹ for the second.

Work on B17 yielded a kon of 114000 M⁻¹ s⁻¹.
